Data from US20200308299A1 (published 2020).
Positions count from the first letter of the chain named.

T1: human Glypican-1 (UniProt P35052 24-530)
T1 chain: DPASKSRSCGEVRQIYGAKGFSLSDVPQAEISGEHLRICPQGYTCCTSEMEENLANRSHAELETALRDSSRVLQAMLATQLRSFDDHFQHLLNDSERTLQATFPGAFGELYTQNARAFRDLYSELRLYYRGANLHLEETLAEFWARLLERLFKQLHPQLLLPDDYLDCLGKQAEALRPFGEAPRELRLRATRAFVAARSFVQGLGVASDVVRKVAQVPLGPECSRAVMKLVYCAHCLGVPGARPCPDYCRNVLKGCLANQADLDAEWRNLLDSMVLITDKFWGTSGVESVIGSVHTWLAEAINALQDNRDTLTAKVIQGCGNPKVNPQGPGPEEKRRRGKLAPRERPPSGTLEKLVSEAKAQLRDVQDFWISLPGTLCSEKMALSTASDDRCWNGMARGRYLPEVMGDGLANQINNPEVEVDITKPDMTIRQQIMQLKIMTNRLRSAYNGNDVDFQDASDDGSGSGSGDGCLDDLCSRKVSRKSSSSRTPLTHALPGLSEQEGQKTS

B1: GPC1 (other)
chain: T1 chain
B2: anti-Glypican-1 antibody clone K090-01a030 (antibody, V domains shown)
VH: QVQLQQSGAELVRPGTSVKMSCKAAGYTFTNYWIGWVKQRPGHGLEWIGDIYPGGGYTHYNEKFKGKATLTADTSSSTAYMQLSSLTSEDSAIYYCARERVYYDGSRYFDVWGAGTTVTVSS
VL: DIKMTQSPKFLPVSAGDRVTMTCKASQSVGNNVAWYQQKPGQSPKLLIYYASNRYTGVPDRFTGSGSGTDFTFTISSVQVEDLAVYFCQQHYSSPWTFGGGTKLEIKR
B3: anti-Glypican-1 antibody clone K090-01a026 (antibody, V domains shown)
VH: B2 VH with Q3H, Y108F
VL: B2 VL with K3V, T5S
B4: anti-Glypican-1 antibody clone K090-01a017 (antibody, V domains shown)
VH: B2 VH with Q1E, A9G, I51L, Y103F
VL: B2 VL with D1S, K3V, S7T
B5: anti-Glypican-1 antibody clone K090-01a002 (antibody, V domains shown)
VH: EVQLQQSGPELVKPGASVKISCKSSGYSFTRYYMHWVKHSPEKSLEWIGEINPSTGDTTYNQKFKAKATLTVDKSSSTAYMQLKSLTSEDSAVYYCAREKRDDGVLAYWGQGTLVTVSS
VL: B2 VL with K3Q, W96L, G100A, I106L
B6: anti-Glypican-1 antibody clone K090-02a014 (antibody, V domains shown)
VH: EVQLQQSGPELVKPGASVKISCKASGYSFTGYYIHWVKQSPEKSLEWIGEINPSTGDITYNQKFKAKATLTVDKSSSTAYMQLKSLTSDDSAVYYCARERNYDRFAYWGQGTLVTVSS
VL: SIVMTQTPALMAASPGEKVTITCSVSSSISSSNLHWYQQKSETSPKPWIYGTSNLASGVPVRFSGSGSGTSYSLTISSMEAEDAATYYCQQWSSYPLTFGAGTKLEIKR
B7: anti-Glypican-1 antibody clone K090-02b006 (antibody, V domains shown)
VH: EVQLVESGGGLVKPGGSRKLSCAASGFTFSDYGMHWVRQAPEKGLEWVAYISSGSSTIYYADTVKGRFTISRDNAKNTLFLQMTSLRSEDTAIYYCVRHSYYNYDIGGYYAMDYWGQGTSVTVSS
VL: DIVLTQSPSSLSASLGERVSLTCRASQEISGYLSWLQQKPDGTIKRLIYAASTLDSGVPKRFSGSRSGSDYSLTISSLESEDFADYYCLQYASYPLTFGAGTKLEIKR
B8: anti-Glypican-1 antibody clone K090-02a010 (antibody, V domains shown)
VH: B7 VH with Q3K, S52N, E89G, I93M, V97A, N103S, I106V, Y109D, A111V
VL: DIVLTQSPKFMSTSVGDRVSITCKASQDVGTAVAWYQQKPGQSPKLLIYWASTRHTGVPDRFTGSGSGTDFTLTISNVQSEDLADYFCQQYSSYPLTFGAGTKLEIKR
B9: anti-Glypican-1 antibody clone K090-02a002 (antibody, V domains shown)
VH: B7 VH with Q3K, I93M, V97A, N103S, I106V, Y109D, A111V
VL: B8 VL with L4M, T5S
B10: anti-Glypican-1 antibody clone K090-01a033 (antibody, V domains shown)
VH: B5 VH with E1Q, Q5K, S24A, R31G, H39Q, L106F
VL: DIVMSQSPKSMSMSVGERVALSCKASENVGTYVSWYQQKPEQSPKLLIYGASNRYTGVPDRFTGSGSATDFTLTISSVQAEDLADYYCGQSYSYPLTFGAGTKLELKR
B11: anti-Glypican-1 antibody clone K090-01a042 (antibody, V domains shown)
VH: QVQLQQPGAELAKPGASVKMSCKASGYTFTRYWMHWVKQRPGQGLEWIGYINPSSGYTEYNQKFKDKATLTADKSSSTAYMQLSSLTSEDSAVYYCVRLGDYSYYFDYWGQGTTLTVSS
VL: DVVMTQTPLSLPVSLGDQASISCRSSQSIVHSNGNTYLEWYLQKPGQSPKLLIYKVSNRFSGVPDRFSGSGSGTDFTLKISRVEAEDLGVYYCFQGSHVPWTFGGGTKLELKR
B12: anti-Glypican-1 antibody clone K090-01a009 (antibody, V domains shown)
VH: EVQLQQSGPELVKPGASVEISCKASGYSFTGYFMNWVKQSQGKSLEWIGRINPDNGDIFYNQKFKGKATLTVDKSSSTAHMELRSLTSEDSAVYYCARSWNWYFDVWGAGTTVTVSS
VL: DIQMTQSPASLSASVGETVTITCRASENIYSYLAWYQQKQGKSPQLLVYNAKTLAEGVPSRFSGSGSGTQFSLKINSLQPEDFGSYYCQHHYGTPYTFGSGTKLEIKR

Target: clone4
Experiment: Biacore

| Kd | Binder |
| --- | --- |
| 3.21 nM | B1 |

Target: clone18
Experiment: Biacore

| Kd | Binder |
| --- | --- |
| 3.21 nM | B1 |

Target: T1, human Glypican-1
Experiment: FACS

| Kd | Binder |
| --- | --- |
| 5.24 nM | B2 |
| 11.2 nM | B3 |
| 5.92 nM | B4 |
| 0.638 nM | B5 |
| 1.72 nM | B6 |
| 3.2 nM | B7 |
| 2.25 nM | B8 |
| 2.25 nM | B9 |
| 0.583 nM | B10 |
| 6.36 nM | B11 |
| 4.47 nM | B12 |

Target: T1, human Glypican-1
Experiment: Biacore

| Kd | Binder |
| --- | --- |
| 42.8 nM | B2 |
| 12400 nM | B3 |
| 24.9 nM | B4 |
| 4.99 nM | B5 |
| 2.52 nM | B6 |
| 16.3 nM | B7 |
| 1.28 nM | B8 |
| 1.12 nM | B9 |
| 8.9 nM | B10 |
| 16.2 nM | B11 |
| 26.9 nM | B12 |

Target: clone4
Experiment: FACS

| Kd | Binder |
| --- | --- |
| 0.804 nM | B1 |

Target: clone18
Experiment: FACS

| Kd | Binder |
| --- | --- |
| 1.52 nM | B1 |
